The record followed here is publication PMC11094772.

Holding throughout (test): BLI
(Biolayer interferometry detects binding as a change in optical thickness at a sensor tip.)

Assay [1] has as its target KRAS4B (residues 1-185, C118S) tethered to nanodiscs (UniProt P01116).
The target is the same in assay [2]. The source holds these as a separate data set.
The target is the same in assay [3]. The source holds these as a separate data set.
Assay [4] has the same target. This is another data set of the same source.

Read-outs that look alike come from different tables or passages of the source.

What is called Kd is a measure of binding affinity in units of concentration. A lower Kd goes with higher affinity. For orientation: koff means the first-order rate constant of dissociation. Low values mean slow dissociation, high ones fast dissociation. As a reminder, the kon is a measure of how fast the partners come together. A high value points to faster complex formation.

On to “D-BRAF: dimeric MBP-BRAF(S365A):14-3-3 complex (2 MBP-BRAF: 2 14-3-3) (from UniProt P15056 1-766)”, for which the Kd in assay [1] came out at 28.6 nM; in assay [2] it was 29.1 nM; in assay [3], 18.5 nM; in assay [4] it was 57.4 nM. The koff is 0.00269 s⁻¹ in assay [1], 0.0034 s⁻¹ in assay [2], 0.00185 s⁻¹ in assay [3] and 0.00395 s⁻¹ in assay [4]. In addition, the kon in assay [1] amounted to 94100 M⁻¹ s⁻¹; in assay [2], 106000 M⁻¹ s⁻¹; in assay [3], 105000 M⁻¹ s⁻¹; in assay [4], 69000 M⁻¹ s⁻¹.

With “M-BRAF: monomeric MBP-BRAF(WT):14-3-3 complex (1 MBP-BRAF: 2 14-3-3) (from UniProt P15056 1-766)”, the Kd is 93.3 nM in assay [1], 65.5 nM in assay [2], 68.2 nM in assay [3] and 177 nM in assay [4]. In addition, the koff turned out to be 0.00235 s⁻¹ in assay [1], 0.00266 s⁻¹ in assay [2], 0.0016 s⁻¹ in assay [3] and 0.00372 s⁻¹ in assay [4]. For the same substance, the association rate constant (kon) was 25400 M⁻¹ s⁻¹ in assay [1], 44200 M⁻¹ s⁻¹ in assay [2], 24000 M⁻¹ s⁻¹ in assay [3] and 21100 M⁻¹ s⁻¹ in assay [4].

As for “tagless dimeric BRAF(S365A):14-3-3 complex (MBP removed by TEV protease) (from UniProt P15056 1-766)”, the Kd in assay [4] was found to be 25.5 nM.

Turning to “tagless monomeric BRAF(WT):14-3-3 complex (MBP removed by TEV protease) (from UniProt P15056 1-766)”, in assay [4], the Kd is 35.5 nM.
